Earlier results, collected in patent publication US20010007853A1, “METHOD FOR ADMINISTERING MONOMERIC INSULIN ANALOGS” (priority 1998, published 2001).

Details: calculated

Question: Which “Absorption values for proteins delivered through the lungs” value does the source give for glycosylated α1-antitrypsin here?
Answer: 48 h

Question: For parathyroid hormone (fragment 1-34), which “Absorption values for proteins delivered through the lungs” value is on record?
Answer: fifteen
